Measured values: article PMC4987164 (Comparative biochemistry and physiology. Part D, Genomics & …, 2016)
pKd: −log10 of the molar value. Entries after “also recorded” stand apart in the source; their conditions may differ. Read-outs that look alike come from different tables or passages of the source.

Tests used:
[1] = biological target: T1, human estrogen receptor alpha ligand binding domain (ESR1-LBD) (Homo sapiens, UniProt P03372); experiment: Fluorescence polarization competitive ligand binding assay; details: relative binding affinity calculated from IC50, E2 set at 100%
T1 sequence (P03372 311-547 limits assumed): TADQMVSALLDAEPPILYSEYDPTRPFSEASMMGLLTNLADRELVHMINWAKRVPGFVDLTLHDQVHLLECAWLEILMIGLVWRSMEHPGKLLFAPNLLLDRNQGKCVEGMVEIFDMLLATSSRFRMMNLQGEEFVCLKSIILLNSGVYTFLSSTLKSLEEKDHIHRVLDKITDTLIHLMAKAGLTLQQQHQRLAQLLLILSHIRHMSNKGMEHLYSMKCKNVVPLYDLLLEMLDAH

[2] = biological target: T2, ESR1 ligand-binding domain (GST-ER LBD) / SRC-3 peptides (Homo sapiens, UniProt P03372); experiment: TR-FRET co-activator peptide recruitment assay, SRC-3 peptides; assay type: biochemical; details: all SRC-3 peptides tested; listed as BPA
T2 sequence (P03372 311-547 limits assumed): T1 sequence (P03372 311-547 limits assumed)

ESR1 = biological target: T3, ESR1 (Homo sapiens, UniProt P03372); experiment: Direct; details: read-out: binding affinity (Kd) for the ESR1–Fl-E1 complex; saturation binding curves (data not shown)
T3 sequence (P03372 311-547 limits assumed): T1 sequence (P03372 311-547 limits assumed)

SRC-1 RID (Homo sapiens) [3] = biological target: SRC-1 RID (Homo sapiens) (UniProt Q15788); details: cited from earlier work
Sequence of SRC-1 RID (Homo sapiens) (Q15788 570-780): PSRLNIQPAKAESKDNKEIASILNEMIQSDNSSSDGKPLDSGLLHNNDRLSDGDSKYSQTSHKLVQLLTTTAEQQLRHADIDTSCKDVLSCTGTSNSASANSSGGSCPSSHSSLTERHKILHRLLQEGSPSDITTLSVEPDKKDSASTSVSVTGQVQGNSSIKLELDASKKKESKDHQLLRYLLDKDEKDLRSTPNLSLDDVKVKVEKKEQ

SRC-1 RID (Homo sapiens) [4] = biological target: SRC-1 RID (Homo sapiens) (UniProt Q15788); details: cited from earlier work; remark: listed apart in the source
[5] = biological target: ESR1 Ligand-binding domain tagged with glutathione-S-transferase (human); experiment: AlphaScreen or HTRF

Sequence of ESR1 (P03372 whole entry): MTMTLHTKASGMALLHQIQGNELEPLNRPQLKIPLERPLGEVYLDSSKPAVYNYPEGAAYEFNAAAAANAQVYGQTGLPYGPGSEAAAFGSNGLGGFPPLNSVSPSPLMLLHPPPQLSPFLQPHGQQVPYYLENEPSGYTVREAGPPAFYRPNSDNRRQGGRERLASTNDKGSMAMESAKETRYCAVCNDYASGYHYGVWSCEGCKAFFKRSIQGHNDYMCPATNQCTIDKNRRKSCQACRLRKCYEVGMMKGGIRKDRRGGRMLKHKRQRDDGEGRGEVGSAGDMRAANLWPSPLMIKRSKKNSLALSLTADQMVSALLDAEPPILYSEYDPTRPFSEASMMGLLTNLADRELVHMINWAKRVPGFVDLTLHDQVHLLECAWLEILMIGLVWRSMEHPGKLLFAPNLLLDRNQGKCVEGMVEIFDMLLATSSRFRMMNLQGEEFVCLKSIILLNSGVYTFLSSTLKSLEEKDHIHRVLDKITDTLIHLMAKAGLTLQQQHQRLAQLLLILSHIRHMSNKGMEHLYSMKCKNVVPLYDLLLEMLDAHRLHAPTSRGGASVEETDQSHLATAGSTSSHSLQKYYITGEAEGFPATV

For `CC(C)(c1ccc(O)cc1)c1ccc(O)cc1` [Bisphenol-A, bisphenol-A], the RBA [1] was 0.29% and the “recruitment of SRC-3 peptides to ESR1 (in words)” value [2] was “failed to induce interaction of the receptor with SRC-3 peptides; also recorded: failed to recruit any of the SRC-3 peptides”.
In the case of `CC12CCC3c4ccc(O)cc4CCC3C1CCC2=NNC(=S)Nc1ccc2c(c1)C(=O)OC21c2ccc(O)cc2Oc2cc(O)ccc21` (stereo not shown) [Fl-E1], the pKd (ESR1) was 8.64.
In the case of ESR1 (from UniProt P03372), the pKd (SRC-1 RID (Homo sapiens) [3]) is given as 7.68 and the pKd (SRC-1 RID (Homo sapiens) [4]) is given as 6.98.
For SRC-1(1) peptide, the EC50 of 17β-estradiol for recruitment of the peptide [5] was 8.44 nM.
SRC-1(2) peptide showed an EC50 of 17β-estradiol for recruitment of the peptide [5] of 5.08 nM and an EC50 of bisphenol-A for recruitment of the peptide [5] of 32.3 nM.
For SRC-3(2) peptide, the EC50 of 17β-estradiol for recruitment of the peptide [5] was 7.19 nM.
Work on SRC-3(3) peptide yielded an EC50 of 17β-estradiol for recruitment of the peptide [5] of 2.74 nM.
